Assay results: US20240368243A1

Experiments:
[1] = target: … (SEQ ID NO: 1)-HLA-A*02 complex (soluble, biotinylated) (human); test: SPR (BIAcore) or BLI (Octet) per Example 3, biotinylated pHLA immobilised, 25 C
[2] = target: … (SEQ ID NO: 1)-HLA-A*02 complex presented on antigen positive cancer cells (human); test: cell-based or functional assay

| Binder | Kd [1] [nM] | t1/2 [1] [h] | EC50 (mel624), IFN-γ ELISPOT, activation of redirected T cells [2] [pM] |
| --- | --- | --- | --- |
| ImmTAC molecule comprising a79 (SEQ ID NO: 7) and b64 (SEQ ID NO: 12) (TCR, part only; not given: anti-CD3 scFv, linker, TCR constants, part only) TCR alpha, part: GDAKTTQPNSMESNEEEPVHLPCNHSTISGTDYIHWYRQLPSQGPEYVIHGLTSNVNNRMASLAIAEDRKSSTLILHRATLRDAAVYYCILILGHSRLGNYIATFGKGTKLSVIP TCR beta, part: DGGITQSPKYLFRKEGQNVTLSCEQNLNHDAMYWYRQDPGQGLRLIYYSQIMNDEQKGDIAEGYSVSREKKESFPLTVTSAQKNPTAFYLCASSWWTGGSAPIRFGPGTRLTVT | 0.138 | 6.38 | 27.5 |
| ImmTAC molecule comprising a79 (SEQ ID NO: 7) and b67 (SEQ ID NO: 13) (TCR, part only; not given: anti-CD3 scFv, linker, TCR constants, part only) TCR alpha, part: GDAKTTQPNSMESNEEEPVHLPCNHSTISGTDYIHWYRQLPSQGPEYVIHGLTSNVNNRMASLAIAEDRKSSTLILHRATLRDAAVYYCILILGHSRLGNYIATFGKGTKLSVIP TCR beta, part: DGGITQSPKYLFRKEGQNVTLSCEQNLNHDAMYWYRQDPGQGLRLIYYSQIMGDEQKGDIAEGYSVSREKKESFPLTVTSAQKNPTAFYLCASSWWTSGSAPIRFGPGTRLTVT | 0.047 | 12.7 | 26.3 |
| ImmTAC molecule comprising a28 (SEQ ID NO: 6) and b58 (SEQ ID NO: 21) (TCR, part only; not given: anti-CD3 scFv, linker, TCR constants, part only) TCR alpha, part: GDAKTTQPNSMESNEEEPVHLPCNHSTISGTDYIHWYRQLPSQGPEYVIHGLTSNVNNRMASLAIAEDRKSSTLILHRATLRDAAVYYCILILGHSRAGNYIATFGKGTKLSVIP TCR beta, part: DGGITQSPKYLFRKEGQNVTLSCEQNLNHDAMYWYRQDPGQGLRLIYYSQIMGDEQKGDIAEGYSVSREKKESFPLTVTSAQKNPTAFYLCASSWWTGGSSPISFGPGTRLTVT | 0.079 | 8.9 | 12 |
| ImmTAC molecule comprising a79 (SEQ ID NO: 7) and b75 (SEQ ID NO: 20) (TCR, part only; not given: anti-CD3 scFv, linker, TCR constants, part only) TCR alpha, part: GDAKTTQPNSMESNEEEPVHLPCNHSTISGTDYIHWYRQLPSQGPEYVIHGLTSNVNNRMASLAIAEDRKSSTLILHRATLRDAAVYYCILILGHSRLGNYIATFGKGTKLSVIP TCR beta, part: DGGITQSPKYLFRKEGQNVTLSCEQNLNHDAMYWYRQDPGQGLRLIYYSQIMGDEQKGDIAEGYSVSREKKESFPLTVTSAQKNPTAFYLCASSWWTGGSAPISFGPGTRLTVT | 0.0577 | 16.9 | 23.6 |
| ImmTAC molecule comprising a28 (SEQ ID NO: 6) and b60 (SEQ ID NO: 19) (TCR, part only; not given: anti-CD3 scFv, linker, TCR constants, part only) TCR alpha, part: GDAKTTQPNSMESNEEEPVHLPCNHSTISGTDYIHWYRQLPSQGPEYVIHGLTSNVNNRMASLAIAEDRKSSTLILHRATLRDAAVYYCILILGHSRAGNYIATFGKGTKLSVIP TCR beta, part: DGGITQSPKYLFRKEGQNVTLSCEQNLNHDAMYWYRQDPGQGLRLIYYSQIMGDEQKGDIAEGYSVSREKKESFPLTVTSAQKNPTAFYLCASSWWTGGASEISFGPGTRLTVT | 0.261 | 2.8 | 31.7 |
| ImmTAC molecule comprising a79 (SEQ ID NO: 7) and b71 (SEQ ID NO: 15) (TCR, part only; not given: anti-CD3 scFv, linker, TCR constants, part only) TCR alpha, part: GDAKTTQPNSMESNEEEPVHLPCNHSTISGTDYIHWYRQLPSQGPEYVIHGLTSNVNNRMASLAIAEDRKSSTLILHRATLRDAAVYYCILILGHSRLGNYIATFGKGTKLSVIP TCR beta, part: DGGITQSPKYLFRKEGQNVTLSCEQNLNHDAMYWYRQDPGQGLRLIYYSQIMGDEQKGDIAEGYSVSREKKESFPLTVTSAQKNPTAFYLCASSWWTGGSAPIYFGPGTRLTVT | 0.087 | 14.9 | 31.8 |
| ImmTAC molecule comprising a79 (SEQ ID NO: 7) and b76 (SEQ ID NO: 24) (TCR, part only; not given: anti-CD3 scFv, linker, TCR constants, part only) TCR alpha, part: GDAKTTQPNSMESNEEEPVHLPCNHSTISGTDYIHWYRQLPSQGPEYVIHGLTSNVNNRMASLAIAEDRKSSTLILHRATLRDAAVYYCILILGHSRLGNYIATFGKGTKLSVIP TCR beta, part: DGGITQSPKYLFRKEGQNVTLSCEQNLNHDAMYWYRQDPGQGLRLIYYSQIMGDEQKGDIAEGYSVSREKKESFPLTVTSAQKNPTAFYLCASSWWTGGSSPIRFGPGTRLTVT | 0.0118 | 58.3 | 17.2 |
| ImmTAC molecule comprising a79 (SEQ ID NO: 7) and b69 (SEQ ID NO: 14) (TCR, part only; not given: anti-CD3 scFv, linker, TCR constants, part only) TCR alpha, part: GDAKTTQPNSMESNEEEPVHLPCNHSTISGTDYIHWYRQLPSQGPEYVIHGLTSNVNNRMASLAIAEDRKSSTLILHRATLRDAAVYYCILILGHSRLGNYIATFGKGTKLSVIP TCR beta, part: DGGITQSPKYLFRKEGQNVTLSCEQNLNHDAMYWYRQDPGQGLRLIYYSQIMGDEQKGDIAEGYSVSREKKESFPLTVTSAQKNPTAFYLCASSWWTGGSAEIRFGPGTRLTVT | 0.052 | 20.4 | 39.8 |
| ImmTAC molecule comprising a28 (SEQ ID NO: 6) and b74 (SEQ ID NO: 17) (TCR, part only; not given: anti-CD3 scFv, linker, TCR constants, part only) TCR alpha, part: GDAKTTQPNSMESNEEEPVHLPCNHSTISGTDYIHWYRQLPSQGPEYVIHGLTSNVNNRMASLAIAEDRKSSTLILHRATLRDAAVYYCILILGHSRAGNYIATFGKGTKLSVIP TCR beta, part: DGGITQSPKYLFRKEGQNVTLSCEQNLNHDAMYWYRQDPGQGLRLIYYSQIMGDEQKGDIAEGYSVSREKKESFPLTVTSAQKNPTAFYLCASSWWTGGASPIRFGPGTRLTVT | 0.182 | 3.7 | 24.3 |

Continued by falling Kd [1], values first:

| Kd [1] [nM] | t1/2 [1] [h] | EC50 (mel624), IFN-γ ELISPOT, activation of redirected T cells [2] [pM] | Binder |
| --- | --- | --- | --- |
| 0.214 | 5.1 | 13.9 | ImmTAC molecule comprising a28 (SEQ ID NO: 6) and b75 (SEQ ID NO: 20) (TCR, part only; not given: anti-CD3 scFv, linker, TCR constants, part only) TCR alpha, part: GDAKTTQPNSMESNEEEPVHLPCNHSTISGTDYIHWYRQLPSQGPEYVIHGLTSNVNNRMASLAIAEDRKSSTLILHRATLRDAAVYYCILILGHSRAGNYIATFGKGTKLSVIP TCR beta, part: DGGITQSPKYLFRKEGQNVTLSCEQNLNHDAMYWYRQDPGQGLRLIYYSQIMGDEQKGDIAEGYSVSREKKESFPLTVTSAQKNPTAFYLCASSWWTGGSAPISFGPGTRLTVT |
| 0.17 | 7.31 | 60.1 | ImmTAC molecule comprising a109 (SEQ ID NO: 8) and b46 (SEQ ID NO: 11) (TCR, part only; not given: anti-CD3 scFv, linker, TCR constants, part only) TCR alpha, part: GDAKTTQPNSMESNEEEPVHLPCNHSTISGTDYIHWYRQLPSQGPEYVIHGLTSNVNNRMASLAIAEDRKSSTLILHRATLRDAAVYYCILILGHSRLGNYQATFGKGTKLSVIP TCR beta, part: DGGITQSPKYLFRKEGQNVTLSCEQNLNHDAMYWYRQDPGQGLRLIYYSQIMGDEQKGDIAEGYSVSREKKESFPLTVTSAQKNPTAFYLCASSWWTGGSAPIRFGPGTRLTVT |
| 0.132 | 4.6 | 23.1 | ImmTAC molecule comprising a79 (SEQ ID NO: 7) and b73 (SEQ ID NO: 16) (TCR, part only; not given: anti-CD3 scFv, linker, TCR constants, part only) TCR alpha, part: GDAKTTQPNSMESNEEEPVHLPCNHSTISGTDYIHWYRQLPSQGPEYVIHGLTSNVNNRMASLAIAEDRKSSTLILHRATLRDAAVYYCILILGHSRLGNYIATFGKGTKLSVIP TCR beta, part: DGGITQSPKYLFRKEGQNVTLSCEQNLNHDAMYWYRQDPGQGLRLIYYSQIMGDEQKGDIAEGYSVSREKKESFPLTVTSAQKNPTAFYLCASSWWTGGAAPISFGPGTRLTVT |
| 0.089 | 9.16 | 16.7 | ImmTAC molecule comprising a79 (SEQ ID NO: 7) and b66 (SEQ ID NO: 23) (TCR, part only; not given: anti-CD3 scFv, linker, TCR constants, part only) TCR alpha, part: GDAKTTQPNSMESNEEEPVHLPCNHSTISGTDYIHWYRQLPSQGPEYVIHGLTSNVNNRMASLAIAEDRKSSTLILHRATLRDAAVYYCILILGHSRLGNYIATFGKGTKLSVIP TCR beta, part: DGGITQSPKYLFRKEGQNVTLSCEQNLNHDAMYWYRQDPGQGLRLIYYSQIMGDEQKGDIAEGYSVSREKKESFPLTVTSAQKNPTAFYLCASSPWTGGSAPIRFGPGTRLTVT |
| 0.083 | 8.3 | 13.4 | ImmTAC molecule comprising a28 (SEQ ID NO: 6) and b57 (SEQ ID NO: 10) (TCR, part only; not given: anti-CD3 scFv, linker, TCR constants, part only) TCR alpha, part: GDAKTTQPNSMESNEEEPVHLPCNHSTISGTDYIHWYRQLPSQGPEYVIHGLTSNVNNRMASLAIAEDRKSSTLILHRATLRDAAVYYCILILGHSRAGNYIATFGKGTKLSVIP TCR beta, part: DGGITQSPKYLFRKEGQNVTLSCEQNLNHDAMYWYRQDPGQGLRLIYYSQIMGDEQKGDIAEGYSVSREKKESFPLTVTSAQKNPTAFYLCASSWWTSGASPISFGPGTRLTVT |
| 0.079 | 10.8 | 22.9 | ImmTAC molecule comprising a79 (SEQ ID NO: 7) and b63 (SEQ ID NO: 22) (TCR, part only; not given: anti-CD3 scFv, linker, TCR constants, part only) TCR alpha, part: GDAKTTQPNSMESNEEEPVHLPCNHSTISGTDYIHWYRQLPSQGPEYVIHGLTSNVNNRMASLAIAEDRKSSTLILHRATLRDAAVYYCILILGHSRLGNYIATFGKGTKLSVIP TCR beta, part: DGGITQSPKYLFRKEGQNVTLSCEQNLNHDAMYWYRQDPGQGLRLIYYSQIVGDEQKGDIAEGYSVSREKKESFPLTVTSAQKNPTAFYLCASSWWTGGSAPIRFGPGTRLTVT |
| 0.0779 | 8.6 | 13.8 | ImmTAC molecule comprising a79 (SEQ ID NO: 7) and b77 (SEQ ID NO: 18) (TCR, part only; not given: anti-CD3 scFv, linker, TCR constants, part only) TCR alpha, part: GDAKTTQPNSMESNEEEPVHLPCNHSTISGTDYIHWYRQLPSQGPEYVIHGLTSNVNNRMASLAIAEDRKSSTLILHRATLRDAAVYYCILILGHSRLGNYIATFGKGTKLSVIP TCR beta, part: DGGITQSPKYLFRKEGQNVTLSCEQNLNHDAMYWYRQDPGQGLRLIYYSQIMGDEQKGDIAEGYSVSREKKESFPLTVTSAQKNPTAFYLCASSWWTGGAAPIRFGPGTRLTVT |
| 0.0231 | 28.7 | 10.6 | ImmTAC molecule comprising a79 (SEQ ID NO: 7) and b58 (SEQ ID NO: 21) (TCR, part only; not given: anti-CD3 scFv, linker, TCR constants, part only) TCR alpha, part: GDAKTTQPNSMESNEEEPVHLPCNHSTISGTDYIHWYRQLPSQGPEYVIHGLTSNVNNRMASLAIAEDRKSSTLILHRATLRDAAVYYCILILGHSRLGNYIATFGKGTKLSVIP TCR beta, part: DGGITQSPKYLFRKEGQNVTLSCEQNLNHDAMYWYRQDPGQGLRLIYYSQIMGDEQKGDIAEGYSVSREKKESFPLTVTSAQKNPTAFYLCASSWWTGGSSPISFGPGTRLTVT |
